These results are taken from publication PMC9302846, “Three enigmatic BioH isoenzymes are programmed in the early stage of mycobacterial biotin synthesis, an attractive anti-TB drug target” (PLoS Pathogens, 2022).

For data set [1], the target named is Seleno-methionine (Se-Met) substituted BioH3 protein (Mycobacterium smegmatis MC2 155) (UniProt A0R6Y0). In words: crystal structure; Se-substituted BioH3, sitting-drop vapor diffusion at 16°C; 20 mM citric acid, 80 mM Bis-Tris propane pH 8.8, 16% PEG3350; SAD; space group P2(1), six molecules per asymmetric unit.
Data set [2] concerns the molecule itself. In words: SEC; Superdex 200 Increase column; protein dialyzed in 20 mM Tris-HCl (pH 8.0), 150 mM NaCl and concentrated to ~15 mg/ml. In general terms: Size exclusion chromatography separates by hydrodynamic size, large species first.

By stoichiometry N is commonly meant the number of molecules, sites or subunits per partner or assembly. “Seleno-methionine (Se-Met) substituted BioH3 protein (from UniProt A0R6Y0 1-282) (enzyme)” came in with a stoichiometry N in data set [1] of 2.

B1: BioH2 (MSMEG_1352) of M. smegmatis MC2 155, hexa-histidine-tagged (enzyme, Mycobacterium smegmatis MC2 155, UniProt A0QS51 1-305, looked up)
chain: MQTRTGLARAGDADHPIDLFYEDMGDPGDPAVLLIMGLGAQMLMWRTEFCEKLVDQGLRVIRFDNRDVGLSTKLSGQRVDSPLALRMARSFLGKRSPAVYTLEDMADDAAALLDHLEIDRAHIVGGSMGGMIAQVFASQHAARTETLGVIFSSNNQALLPPPGIRQLLSLITGPPADASRDAVLDNAVRLSRLNGSPAYPRSEEEIRAEAAELYDRAYYPAGIARHFAAILGSGSLRHHNERVTAPTVVIHGRADRLMPPSGGRAIANAIRGARMVLIDGMGHELPEPVWDEVIGELKTNFAVVG
notes: BioH2, product of MSMEG_1352 of Mycobacterium smegmatis MC2 155; source: E. coli BL21(DE3), pET28a, purified (nickel column, dialysis)
In the case of B1, in data set [2], the binding result is “binds”.
